Laboratory results: publication PMC3861664 (The Journal of Biological Chemistry, 2013)
Changes are numbered by the printed parent chain. In names and notes the source's numbering stands. Each block holds one binder with its values, some of them ahead of it.

Assays:
[1] = molecular target: T1, glucagon receptor extracellular domain, wild type (recombinant, soluble) (Homo sapiens); assay: AlphaScreen or HTRF; competition: soluble WT or G40S GCGR ECD against WT GCGR ECD on donor beads for binding to mAb7, its variants (IgG) or mAb1 on acceptor beads; conditions: both partners purified
T1 construct: glucagon receptor (GCGR), human, extracellular domain; A biotinylated form was used for phage selections; also called GCGR ECD; WT ECD
T1 chain: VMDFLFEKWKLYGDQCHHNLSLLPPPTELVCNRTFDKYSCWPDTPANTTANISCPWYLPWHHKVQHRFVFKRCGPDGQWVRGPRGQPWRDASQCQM

[2] = molecular target: T2, glucagon receptor extracellular domain with the naturally occurring G40S mutation (recombinant, soluble) (human); assay: AlphaScreen competition with WT ECD
T2 chain: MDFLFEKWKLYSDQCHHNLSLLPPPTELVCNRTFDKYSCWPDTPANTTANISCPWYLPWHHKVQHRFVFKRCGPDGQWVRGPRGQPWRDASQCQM

B1: mAb7.v35, humanized mAb7 with S54T/N97G (IgG) (antibody, V domains shown)
VH: EVQLVESGPGLVKPSETLSLSCTVSGDSITSGFWNWIRQPPGKGLEWIGYIGFTGSTYYNPSLKSRVTISRDTSKNQYSLKLSSVTAADTAVYYCASVDGSAALDYWGQGTLVTVSS
VL: DIVMTQTPLSLPVTPGQPASISCRSSQSLVHSNGNTYLHWYLQKPGQSPQLLIYKVSNRFSGVPDRFSGSGSGTDFTLKISRVEAEDVGVYYCSQSTHVPWTFGQGTKVEIK
notes: mAb7.v1 heavy chain with S54T (CDR H2) and N97G (CDR H3); that is the heavy chain of m13 (PDB 4LEX) with S28T put back and N97G added; as the light chain of m13 (PDB 4LEX); IgG; The methods say that mutations found in the humanised background were also introduced into murine mAb7 clones; source: recombinant antibody
binding result [1]: binds
IC50 [2]: 21 nM

B2: mAb7.v1, humanized version of mAb7 (IgG) (antibody, V domains shown)
VH: B1 VH with T54S, G100N
VL: B1 VL
notes: as the light chain of m13 (PDB 4LEX); IgG; source: recombinant antibody
binding result [1]: binds

The remaining lines, values ahead:

binding result [1]: binds
B3: mAb7.v11, humanized mAb7 with S54T (IgG) (antibody, V domains shown)
VH: B1 VH with G100N
VL: B1 VL
notes: mAb7.v1 heavy chain with S54T (CDR H2); that is the heavy chain of m13 (PDB 4LEX) with S28T put back; as the light chain of m13 (PDB 4LEX); IgG; also called S54T alone; source: recombinant antibody

binding result [1]: binds
IC50 [2]: 87 nM
B4: mAb7.v19, humanized mAb7 with N97G (IgG) (antibody, V domains shown)
VH: B1 VH with T54S
VL: B1 VL
notes: mAb7.v1 heavy chain with N97G (CDR H3); that is the heavy chain of m13 (PDB 4LEX) with S28T and S54T put back and N97G added; as the light chain of m13 (PDB 4LEX); IgG; also called N97G containing antibody; source: recombinant antibody

binding result [1]: binds
B5: mAb1, inhibitory anti-GCGR monoclonal antibody (antibody, V domains shown)
VH: QVQLVESGGGVVQPGRSLRLSCAASGFTFSSYGMHWVRQAPGKGLEWVAVMWYDGSNKDYVDSVKGRFTISRDNSKNTLYLQMNRLRAEDTAVYYCAREKDHYDILTGYNYYYGLDVWGQGTTVTVSS
VL: DIQMTQSPSSLSASVGDRVTITCRASQGIRNDLGWYQQKPGKAPKRLIYAASSLESGVPSRFSGSGSGTEFTLTISSVQPEDFVTYYCLQHNSNPLTFGGGTKVEIK
notes: as the heavy chain of the mAb1 Fab in PDB 4LF3 and 4ERS; as the light chain of the mAb1 Fab in PDB 4LF3 and 4ERS; also called anti-GCGR mAb1
